Several values for one entry are separate records, joined by “and”; a condition that tells them apart may be missing. Identical values can stand only once.

The conditions of this data set: Homo sapiens; pH 7.5; Thermal; CD; Tris-HCl; KCl; transition: 2; whole UniProt chain shown.

B1: Guanylyl cyclase-activating protein 1 wild type, P43080 (protein)
chain: MGNVMEGKSVEELSSTECHQWYKKFMTECPSGQLTLYEFRQFFGLKNLSPSASQYVEQMFETFDFNKDGYIDFMEYVAALSLVLKGKVEQKLRWYFKLYDVDGNGCIDRDELLTIIQAIRAINPCSDTTMTAEEFTDTVFSKIDVNGDGELSLEEFIEGVQKDQMLLDTLTRSLDLTRIVRRLQNGEQDEEGADEAAEAAG
For the protein B1, the Tm – broadly, the temperature at the midpoint of the melting transition – is 50.1 °C and 51.5 °C.

(Values after FireProtDB (doi:10.1093/hmg/ddv370).)
